The text below walks through data of the DeepSol protein solubility set.

This data set is described as follows: soluble on expression in E. coli; label from the status in PepcDB or PDB records.
As for “MSLKQQLIKNGLVLDMKGNHKPQAKDILIEGKWIRDIRPNIEPEVDTEIIDAEGKIVMPGFVDTHRHVWESLLRHIGTDWTLLTYLDNLYYGNLGSMLTPEDSYIANLWGALEAIDAGVTTVLDWSMLETPEHADASIKGLQAAGIRAVFAHGTPGYETYWSRDSEVRHPKDAKRVKKEYFQSDDQLLTMALAIRGPEFSSWEVTLDDIQLARELDAIASMHIGFGTWGPHDRSITRMREAGLLDSDLNLVHVNRIQPHEYEYIAESGASLSVTPEVEMMMGHGYPATGYLHKHRGLVTLGVDVVVATAGDMFAQMKFALQAERAWQNEQRLDRGEMPEQLKMTTNDVLTFATLNGAKALKLDDKIGTLDVGKEADLLLINPSSFNLFPLNHEPVGAVVQSARPENVDSVFIAGRPVKRHGKLLFDDLDGLRNKVLAASEAVFHRQAAKNEGHHHHHH”, the “soluble on expression in E. coli” value is reported as “soluble”.

With “MSLKRQRIVIKIGSSSLTTKQGALDLEKLEGYVRAIVNLRKAGHEVILISSGAVAAGFSRLGYPVRPTTMAGKQAAAAVGQALLMQHYMERFHQHGIIAAQLLLTRKDFQNQTQYTNAYSALMELLKRGALPIINENDSTSIAELTFGDNDMLSALVSGLIHAHTLCILTDVNGLYDANPKTHPNAKRYQYLPTIPDEMLQMGGEAGSNVGTGGMKSKVAAAQTALSLGVDVFIGKASGEHALLDILSGKGDGTYVGNTGDLMEGKTKQWIRLHSPVSGVVRIDQGAERAIMNEGKSLLPAGVTSVHGTFQAGDVVHIWNEQNKVIAKGQVTLSSEQLRKVQGRKSDEAKQLIPLVRDEVVHRDQLVIQEKELNESEGHHHHHH”, the “soluble on expression in E. coli” value is “not soluble”.

“MSLKSYILLIKCKTDTTIRTKSKKFLIRKGVYAYVGSCGRSCGRRVSRHFNKEKSNYHWHIDYLTKACEPIGVFVMNHVGEKELALLFSKNNAFIEEFGSSDDKDAKSHLFIVNDLQELCSTVCDKSREREGHHHHHH”: the “soluble on expression in E. coli” value was “soluble”.

On to “MSLKTVVVSGASVAGTAAAYWLGRHGYSVTMVERHPGLRPGGQAIDVRGPALDVLERMGLLAAAQEHKTRIRGASFVDRDGNELFRDTESTPTGGPVNSPDIELLRDDLVELLYGATQPSVEYLFDDSISTLQDDGDSVRVTFERAAAREFDLVIGADGLHSNVRRLVFGPEEQFVKRLGTHAAIFTVPNFLELDYWQTWHYGDSTMAGVYSARNNTEARAALAFMDTELRIDYRDTEAQFAELQRRMAEDGWVRAQLLHYMRSAPDFYFDEMSQILMDRWSRGRVALVGDAGYCCSPLSGQGTSVALLGAYILAGELKAAGDDYQLGFANYHAEFHGFVERNQWLVSDNIPGGAPIPQEEFERIVHSITIKDYEGHHHHHH”, for which the “soluble on expression in E. coli” value is given as “not soluble”.

Take “MSLKTYDAFPEPIGGYTVGRTQMDFEYTASDHSKRELTAFVYYPSDSSEGKTTSTYMFPEVYEMFNEQPLVTALKDVFSIDIKTQCYDDLALSGKEKRYPVLFYVCGGGGSPEWGTVICTDLASMGYVVVSIGHQNSTMYKRKDGRLFNVSKDFSDVIMAFSEDPEMLALAGKMEMRPDDETAIEMCHNVLTLPILAKLTEYSELQAEDVRYVADYLYKLDSGELNSIFKGRLLLDIGMGIVGHSYGGPTTAIVCRDDDRFACGIGLDSGAFGLLDSDLKKPFLLLFCEPNYNMNAIIGANNSMETYYFSVDRVAHLDYCDIVFTSVNEELRGERDAMEMRNLVTDYTKNFFDHYILLKAASVESLAYDGVDLIKKTSNKEGHHHHHH”: the “soluble on expression in E. coli” value was “soluble”.

With “MSLKVLAFDTSSKALSLAILEDKQVLAETTINIKKNHSITLMPAIDFLMASLDWTPKDLDRIVVAEGPGSYTGLRIAVATAKTLAHTLNIELVGMSSLLALVPYQQEGLFIPLMDARRNNVYAGFYENAKPVMAEAHLPFERVIELIKGASQVTFVGEVGPFVEQIQKHLPRTDYKETLPNAANLALLAWDKEADSLHDFVPNYLKRVEAEENWLKNHTESGESYIKRLEGHHHHHH”, the “soluble on expression in E. coli” value is recorded as “soluble”.

Regarding “MSLKYGRDTIVEVDLNAVKHNVKEFKKRVNDENIAMMAAVKANGYGHGAVEVAKAAIEAGINQLAIAFVDEAIELREAGINVPILILGYTSVAAAEEAIQYDVMMTVYRSEDLQGINEIANRLQKKAQIQVKIDTGMSRIGLQEEEVKPFLEELKRMEYVEVVGMFTHYSTADEIDKSYTNMQTSLFEKAVNTAKELGIHIPYIHSSNSAGSMEPSNTFQNMVRVGIGIYGMYPSKEVNHSVVSLQPALSLKSKVAHIKHAKKNRGVSYGNTYVTTGEEWIATVPIGYADGYNRQLSNKGHALINGVRVPVIGRVCMDQLMLDVSKAMPVQVGDEVVFYGKQGEENIAVEEIADMLGTINYEVTCMLDRRIPRVYKENNETTAVVNILRKN”, the “soluble on expression in E. coli” value is recorded as “not soluble”.
